This test has as its target Ankyrin-G ANK repeats 8-24. Kind of test: ITC; E-cadherin proteins in the syringe (e.g. 200 μM Trx-E-cadherin) titrated into AnkG in the cell (e.g. 20 μM Trx-AnkG R1-24); 25 °C; 50 mM Tris, 100 mM NaCl, 1 mM EDTA, 1 mM DTT, pH 7.8; one-site binding model.

In paper PMC10611751 one finds Kd data, which are given here for three substances.

Sequence of E-cadherin C-terminal domain (residues 734-884) (P09803 734-884): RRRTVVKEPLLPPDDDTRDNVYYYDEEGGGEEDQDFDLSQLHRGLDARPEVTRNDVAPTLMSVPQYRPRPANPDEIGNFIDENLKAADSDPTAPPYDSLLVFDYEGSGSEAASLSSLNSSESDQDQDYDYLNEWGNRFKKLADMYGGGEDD
Sequence of E-cadherin 751-775 (site-1) (P09803 751-775): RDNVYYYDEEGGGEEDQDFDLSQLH
Sequence of E-cadherin 828-869 (containing both site-2 and site-3) (P09803 828-869): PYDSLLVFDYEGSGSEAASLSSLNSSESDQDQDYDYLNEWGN

Consider “E-cadherin 751-775 (site-1) (from UniProt P09803 751-775) (domain or fragment)”, for which the Kd (as a rule, the concentration at which binding is half-saturated) turned out to be 1300 nM. The substance “E-cadherin 828-869 (containing both site-2 and site-3) (from UniProt P09803 828-869) (domain or fragment)” had a Kd of 2500 nM.

The substance “E-cadherin C-terminal domain (residues 734-884) (from UniProt P09803 734-884) (domain or fragment)” yielded a Kd of 1500 nM.
